The values below come from patent publication US20260356924 (published 2026).

Numbering of substitutions follows the chain as printed.

The target in assay [1] is ePHF (human, UniProt P10636). Nature of the assay: ELISA. (In an ELISA, binding on a coated surface is turned into a signal by an enzyme label.)
Assay [2] has as its target T1, tau peptide 413-430 (human, phosphorylation not given).
T1 chain: STGSIDMVDSPQLATLAD

Assay [3] addresses T2, Tau409-426 pS416 pS422 peptide (human).
T2 chain: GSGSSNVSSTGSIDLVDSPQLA
Nature of the assay: ELISA.

In assay [4] the target is T3, Tau409-426 6-phospho peptide (human, not fully specified).
T3 chain: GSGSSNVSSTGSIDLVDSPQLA
Nature of the assay: ELISA.

The target in assay [5] is T4, Tau409-426 pS422 peptide (human).
T4 chain: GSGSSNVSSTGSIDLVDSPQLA
Nature of the assay: ELISA.

In assay [6] the target is T5, iPHF (human, UniProt P10636). The assay is described as follows: BLI.
T5 sequence (P10636 2-758): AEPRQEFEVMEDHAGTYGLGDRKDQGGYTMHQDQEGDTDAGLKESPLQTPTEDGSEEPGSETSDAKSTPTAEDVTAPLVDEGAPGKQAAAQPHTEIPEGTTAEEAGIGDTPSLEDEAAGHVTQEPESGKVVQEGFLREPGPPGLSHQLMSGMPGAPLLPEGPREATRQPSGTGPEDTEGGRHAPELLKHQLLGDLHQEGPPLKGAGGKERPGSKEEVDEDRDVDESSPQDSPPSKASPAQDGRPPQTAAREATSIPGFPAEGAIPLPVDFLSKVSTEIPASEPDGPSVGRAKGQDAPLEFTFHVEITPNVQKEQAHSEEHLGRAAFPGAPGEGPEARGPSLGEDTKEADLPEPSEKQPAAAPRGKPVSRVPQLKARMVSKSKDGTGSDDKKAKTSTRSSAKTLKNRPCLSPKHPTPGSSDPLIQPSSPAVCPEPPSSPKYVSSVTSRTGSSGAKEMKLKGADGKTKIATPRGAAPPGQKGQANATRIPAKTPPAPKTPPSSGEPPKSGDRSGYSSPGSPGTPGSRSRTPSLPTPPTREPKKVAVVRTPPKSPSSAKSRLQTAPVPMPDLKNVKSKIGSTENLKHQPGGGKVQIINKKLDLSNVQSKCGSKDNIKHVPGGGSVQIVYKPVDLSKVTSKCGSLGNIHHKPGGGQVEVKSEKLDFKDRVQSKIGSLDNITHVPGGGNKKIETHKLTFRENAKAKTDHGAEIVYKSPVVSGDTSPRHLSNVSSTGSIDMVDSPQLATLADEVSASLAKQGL
The target of assay [7] is T5, iPHF. The assay is described as follows: SPR. For orientation: Surface plasmon resonance follows binding to a sensor surface in real time, without labels.
Assay [8] concerns the target T5, iPHF. The assay is described as follows: SPR, KD2.
In assay [9] the target is T5, iPHF. The assay is described as follows: SPR, KD1.

ePHF, sequence (P10636 2-758): as above

B1: V0004 (antibody, V domains shown)
VH: QVQLQQPGAELVKPGASVKLSCKASDYTFTNYWMHWVKQRPGRGLEWIGRIDPNSGGTRYNEKFKNKATLTVDKPSSTAYMHLSSLTSEDSAVYYCAGDFDVWGTGTTVTVSS
VL: DIQMTQSPASLSASVGETVTITCRASGNIHNYLAWYQQRQGKSPQLLVYNAKTLPDGVPSRFSGSGSGTQYSLKINSLQPEDFGSYCCQHFWSTPLTFGAGTKLELK
modifications: enriched paired helical filament tau, hyperphosphorylated
With B1, in assay [1], the half-maximal effective concentration (EC50) – broadly, the concentration at which the effect is half-maximal – was found to be 0.083 nM.

B2: V0024 (antibody, V domains shown)
VH: QVQLQQPGTELVKPGASVKLSCKASGYTFTRFWMHWVKQRPGQGLEWIGNINPNNGGTDNNERFKSKATLTVDRSSSTAYMQLSSLTSEDSAVYYCARGTGTGAMDYWGQGTSVTVSS
VL: DVVMTQTPLSLPVSLGDQASISCRSSQSLVHSNGNTHLYWYLQKPGQSPKLLIYRVSSRFSGVPDRFSGSGSGTDFTLKISRVEAEDLGVYFCFQGTHVPRTFGGGTKLEIK
For the molecule B2, in [2], binding was put at a Kd of 0.225 nM. The EC50 in assay [3] turned out to be 0.22 nM; in assay [4], 0.222 nM; in [5], 0.233 nM.

B3: V0023 (antibody, V domains shown)
VH: B2 VH with R31I, Q43H, N50K, T58G, N60Y, R63K, R74K, S77T, M81L
VL: B2 VL with Q18H, N35I, K44R, S48T, S58N, R82S, K112E
With B3, the dissociation constant (Kd) (in general, the free concentration of one partner at which half of the binding sites on the other are occupied at equilibrium, for simple one-to-one binding) in assay [2] is 0.207 nM. Also, the EC50 in assay [3] came to 0.252 nM; in assay [4], 0.217 nM; in [5], 0.234 nM.

B4: V0022 (antibody, V domains shown)
VH: QVQLQQPGTELVKPGSSVNLSCKASGFTFTRYWMHWVKERPGHGLEWIGNINPNNGGTDFNEKFKNKATLTVHKSSTTVFIQLSSLTSEDSAVYYCARGTGTGAMDYWGQGTSVTVSS
VL: B2 VL with S32N, N35I, H37Y, S58N, S68G
modifications: enriched paired helical filament tau, hyperphosphorylated
On to B4, for which, in [1], the EC50 was 0.07 nM.

B5: V0022 (antibody, V domains shown)
VH: B4 VH
VL: B2 VL with S32N, N35I, H37Y, S58N, S68G
With B5, in [2], binding was characterised by a dissociation constant (Kd) of 0.306 nM. The EC50 in [3] was 0.283 nM; in [4] it was 0.302 nM; in assay [5] it was 0.288 nM.

B6: V0023 (antibody, V domains shown)
VH: B2 VH with R31I, Q43H, N50K, T58G, N60Y, R63K, R74K, S77T, M81L
VL: B2 VL with Q18H, N35I, K44R, S48T, S58N, R82S, K112E
modifications: immunopurified paired helical filament tau, hyperphosphorylated
In the case of B6, the results for the Kd in [6] and in assay [7] were 4 nM and 0.0578 nM, respectively.

B7: V0023 (antibody, V domains shown)
VH: B2 VH with R31I, Q43H, N50K, T58G, N60Y, R63K, R74K, S77T, M81L
VL: B2 VL with Q18H, N35I, K44R, S48T, S58N, R82S, K112E
modifications: enriched paired helical filament tau, hyperphosphorylated
Take B7: the EC50 in assay [1] came out at 0.11 nM.

B8: V0022 (antibody, V domains shown)
VH: B4 VH
VL: B2 VL with S32N, N35I, H37Y, S58N, S68G
modifications: immunopurified paired helical filament tau, hyperphosphorylated
Take B8: the Kd was found to be 0.3 nM in assay [6] and 0.0439 nM in assay [7].

B9: V0024 (antibody, V domains shown)
VH: B2 VH
VL: B2 VL
modifications: enriched paired helical filament tau, hyperphosphorylated
In turn, B9 gave an EC50 in assay [1] of 0.125 nM.

B10: V0024 (antibody, V domains shown)
VH: B2 VH
VL: B2 VL
modifications: immunopurified paired helical filament tau, hyperphosphorylated
For B10, the Kd in [6] was found to be 2.8 nM; in [7] it was 0.124 nM.

B11: V0052 (antibody, V domains shown)
VH: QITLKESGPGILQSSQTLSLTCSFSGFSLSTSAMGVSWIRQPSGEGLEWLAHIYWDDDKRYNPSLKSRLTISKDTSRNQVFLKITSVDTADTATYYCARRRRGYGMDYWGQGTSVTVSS
VL: SIVMTQTPKFLLVSAGDRVTITCKASQSVSNDVAWYQQKPGQSPKLLIYYASNRCTGVPDRFTGSGYGTDFTFTISTVQAEDLAVYFCQQDYRSPLTFGAGTKLELK
modifications: immunopurified paired helical filament tau, hyperphosphorylated
With B11, the dissociation constant (Kd) in assay [8] was determined as 2.64 nM; in assay [9] it was 4.46 nM; in assay [6] it was 0.6 nM.

B12: V0009 (antibody, V domains shown)
VH: EVQLVESGGALVQPGGSLSLSCAASGFTFTDYYMSWVRQPPGKALEWLALIRNKAKGFTTEYSASVKGRFTISRDNSQSILLFQMNDLRADDSATYYCVRDINYWGQGTTLTVSS
VL: not shown
modifications: immunopurified paired helical filament tau, hyperphosphorylated
In the case of B12, the figures for the Kd in [6] and in [7] were 0.2 nM and 0.296 nM, respectively.

B13: V0009 (antibody, V domains shown)
VH: B12 VH
VL: not shown
modifications: enriched paired helical filament tau, hyperphosphorylated
Regarding B13, the midpoint of the response in [1], the EC50, lay at 0.038 nM.
